The source of these data is the Human Domainome abundance scans (Beltran et al. 2025).

± gives the uncertainty stated by the source.

A short description of this series: abundance fitness (aPCA) (normalised: wild type 0, dead -1); higher = more abundant; growth selection in yeast, the domain comes from the species named. The conditions noted are these: Homo sapiens.
Turning to “Scaffold attachment factor B1 E74A, Q15424”, the abundance fitness is -0.071 ± 0.067.

In turn, “Scaffold attachment factor B1 E74C, Q15424” showed an abundance fitness of -0.18 ± 0.073. Substance “Scaffold attachment factor B1 E74D, Q15424” displayed an abundance fitness of -0.312 ± 0.074. On to “Scaffold attachment factor B1 E74F, Q15424”, for which the abundance fitness was -0.175 ± 0.069. The figure for “Scaffold attachment factor B1 E74G, Q15424” is -0.202 ± 0.063; for “Scaffold attachment factor B1 E74H, Q15424” it is -0.608 ± 0.12.

As for “Scaffold attachment factor B1 E74I, Q15424”, the abundance fitness is -0.215 ± 0.086.

As for “Scaffold attachment factor B1 E74K, Q15424”, the abundance fitness was -0.213 ± 0.089. For the substance “Scaffold attachment factor B1 E74L, Q15424”, the abundance fitness is -0.125 ± 0.053. In the case of “Scaffold attachment factor B1 E74M, Q15424” it was -0.119 ± 0.068.

On to “Scaffold attachment factor B1 E74N, Q15424”, for which the abundance fitness was -0.366 ± 0.09. “Scaffold attachment factor B1 E74P, Q15424” displayed an abundance fitness of -0.309 ± 0.063. In the case of “Scaffold attachment factor B1 E74Q, Q15424” it was -0.32 ± 0.088; in that of “Scaffold attachment factor B1 E74R, Q15424”, -0.074 ± 0.051.

For “Scaffold attachment factor B1 E74S, Q15424”, the abundance fitness is -0.053 ± 0.053. As to “Scaffold attachment factor B1 E74T, Q15424”, the abundance fitness was -0.183 ± 0.083. Substance “Scaffold attachment factor B1 E74V, Q15424” came in with an abundance fitness of -0.157 ± 0.055. The figure for “Scaffold attachment factor B1 E74W, Q15424” is -0.135 ± 0.055; for “Scaffold attachment factor B1 E74Y, Q15424” it is -0.226 ± 0.09. The figure for “Scaffold attachment factor B1 E76A, Q15424” is -0.161 ± 0.064; for “Scaffold attachment factor B1 E76C, Q15424” it is -0.113 ± 0.054; for “Scaffold attachment factor B1 E76G, Q15424” it is -0.096 ± 0.053. The figure for “Scaffold attachment factor B1 E76I, Q15424” is -0.291 ± 0.093; for “Scaffold attachment factor B1 E76K, Q15424” it is -0.294 ± 0.096. Take “Scaffold attachment factor B1 E76L, Q15424”: the abundance fitness is -0.199 ± 0.062. Turning to “Scaffold attachment factor B1 E76M, Q15424”, the abundance fitness was -0.2 ± 0.086. In the case of “Scaffold attachment factor B1 E76N, Q15424” it was -0.169 ± 0.067.

As for “Scaffold attachment factor B1 E76P, Q15424”, the abundance fitness was -0.069 ± 0.083. On to “Scaffold attachment factor B1 E76Q, Q15424”, for which the abundance fitness was -0.415 ± 0.088. The figure for “Scaffold attachment factor B1 E76R, Q15424” is -0.055 ± 0.054; for “Scaffold attachment factor B1 E76T, Q15424” it is -0.195 ± 0.073. The figure for “Scaffold attachment factor B1 E76V, Q15424” is -0.044 ± 0.049; for “Scaffold attachment factor B1 E76W, Q15424” it is -0.305 ± 0.07; for “Scaffold attachment factor B1 E76Y, Q15424” it is -0.175 ± 0.056.

Take “Scaffold attachment factor B1 E80A, Q15424”: the abundance fitness was -0.055 ± 0.051. In the case of “Scaffold attachment factor B1 E80D, Q15424” it was -0.323 ± 0.14; in that of “Scaffold attachment factor B1 E80G, Q15424”, -0.151 ± 0.085; in that of “Scaffold attachment factor B1 E80K, Q15424”, -0.889 ± 0.25. The figure for “Scaffold attachment factor B1 E80M, Q15424” is -0.361 ± 0.19; for “Scaffold attachment factor B1 E80N, Q15424” it is -0.513 ± 0.43. The figure for “Scaffold attachment factor B1 E80Q, Q15424” is -0.274 ± 0.1; for “Scaffold attachment factor B1 E80R, Q15424” it is -0.443 ± 0.092; for “Scaffold attachment factor B1 E80T, Q15424” it is -0.675 ± 0.2. “Scaffold attachment factor B1 E80V, Q15424” registered an abundance fitness of -0.223 ± 0.059.

As for “Scaffold attachment factor B1 E80W, Q15424”, the abundance fitness was -0.409 ± 0.15. The figure for “Scaffold attachment factor B1 G27A, Q15424” is -0.257 ± 0.061; for “Scaffold attachment factor B1 G27D, Q15424” it is -0.027 ± 0.08. The substance “Scaffold attachment factor B1 G27E, Q15424” showed an abundance fitness of -0.068 ± 0.062. Turning to “Scaffold attachment factor B1 G27F, Q15424”, the abundance fitness was -0.246 ± 0.12. In the case of “Scaffold attachment factor B1 G27H, Q15424” it was -0.692 ± 0.14; in that of “Scaffold attachment factor B1 G27I, Q15424”, -0.03 ± 0.079; in that of “Scaffold attachment factor B1 G27K, Q15424”, -0.204 ± 0.1.

In the case of “Scaffold attachment factor B1 G27L, Q15424”, the abundance fitness is -0.191 ± 0.057. In the case of “Scaffold attachment factor B1 G27M, Q15424” it was -0.09 ± 0.11; in that of “Scaffold attachment factor B1 G27N, Q15424”, -0.187 ± 0.12; in that of “Scaffold attachment factor B1 G27P, Q15424”, -0.519 ± 0.11.

In the case of “Scaffold attachment factor B1 G27Q, Q15424”, the abundance fitness is -0.334 ± 0.08.

“Scaffold attachment factor B1 G27R, Q15424” had an abundance fitness of -0.327 ± 0.052.

“Scaffold attachment factor B1 G27S, Q15424” showed an abundance fitness of -0.092 ± 0.07. As for “Scaffold attachment factor B1 G27V, Q15424”, the abundance fitness was -0.1 ± 0.048. Substance “Scaffold attachment factor B1 G27W, Q15424” registered an abundance fitness of -0.559 ± 0.057.

“Scaffold attachment factor B1 G27Y, Q15424” gave an abundance fitness of -0.088 ± 0.12.

“Scaffold attachment factor B1 G52A, Q15424” had an abundance fitness of -0.538 ± 0.069.

With “Scaffold attachment factor B1 G52C, Q15424”, the abundance fitness is -0.931 ± 0.082.

Take “Scaffold attachment factor B1 G52D, Q15424”: the abundance fitness was -0.691 ± 0.084.

Substance “Scaffold attachment factor B1 G52E, Q15424” gave an abundance fitness of -0.727 ± 0.079.

As for “Scaffold attachment factor B1 G52F, Q15424”, the abundance fitness was -1.25 ± 0.11.

In turn, “Scaffold attachment factor B1 G52H, Q15424” displayed an abundance fitness of -1.02 ± 0.15.

As to “Scaffold attachment factor B1 G52I, Q15424”, the abundance fitness is -1.72 ± 0.32.
